We go through one sequence from paper PMC10605006.

The target in the data set is NTD (SARS-CoV-2) (UniProt P0DTC9). Description: fluorescence anisotropy. Conditions: Anisotropy: 50 mM Na phosphate pH 6.5, 150 mM NaCl, 1 mM NaN3, 50 nM RNA; EMSA: 20 mM Tris pH 7.5, 150 mM NaCl, 1 mM DTT, room temp, 25 uM RNA; NTD NMR: 20 mM …. (In general: Fluorescence polarisation rises when a labelled molecule tumbles more slowly, as on binding a larger partner.)

The term Kd denotes the concentration at which binding is half-saturated. A high value points to lower affinity.

Consider “GGCACAUGGACGUC / GACGUCCAUGUGCC [ds-14mer]”, for which the Kd worked out at 30 µM.
